Here are results for three molecules from patent publication US20110086770A1.

In assay [1] the target is T1, recombinant human DR 4 receptor Fc fusion protein (R&D Systems) (human).
T1 sequence (O00220 whole entry, looked up): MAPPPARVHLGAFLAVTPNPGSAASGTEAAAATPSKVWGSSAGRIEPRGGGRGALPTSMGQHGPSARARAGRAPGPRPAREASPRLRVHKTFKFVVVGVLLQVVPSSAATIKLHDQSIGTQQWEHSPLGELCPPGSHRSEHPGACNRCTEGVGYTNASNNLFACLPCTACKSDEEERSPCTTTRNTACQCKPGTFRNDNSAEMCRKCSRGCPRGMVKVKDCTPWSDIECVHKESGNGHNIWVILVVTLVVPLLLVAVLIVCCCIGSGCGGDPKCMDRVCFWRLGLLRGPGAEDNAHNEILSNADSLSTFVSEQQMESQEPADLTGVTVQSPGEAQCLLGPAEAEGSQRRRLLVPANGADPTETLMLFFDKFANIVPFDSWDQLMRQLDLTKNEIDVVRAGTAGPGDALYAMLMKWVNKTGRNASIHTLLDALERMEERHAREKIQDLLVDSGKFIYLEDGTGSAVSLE
Description: SPR (Biacore), captured DR4/Fc.

Assay [2] has as its target recombinant human DR 5 receptor Fc fusion protein (R&D Systems) (human). The assay can be described thus: SPR (Biacore), captured DR5/Fc. Background: Surface plasmon resonance follows binding to a sensor surface in real time, without labels.

For orientation: Kd means the equilibrium constant for the complex coming apart. As usually defined, the koff is the rate constant with which the complex falls apart. One may read the kon as a measure of how fast the partners come together.

Sequence of recombinant human DR 5 receptor Fc fusion protein (R&D Systems) (human) (O14763 whole entry, the tested form may be a part): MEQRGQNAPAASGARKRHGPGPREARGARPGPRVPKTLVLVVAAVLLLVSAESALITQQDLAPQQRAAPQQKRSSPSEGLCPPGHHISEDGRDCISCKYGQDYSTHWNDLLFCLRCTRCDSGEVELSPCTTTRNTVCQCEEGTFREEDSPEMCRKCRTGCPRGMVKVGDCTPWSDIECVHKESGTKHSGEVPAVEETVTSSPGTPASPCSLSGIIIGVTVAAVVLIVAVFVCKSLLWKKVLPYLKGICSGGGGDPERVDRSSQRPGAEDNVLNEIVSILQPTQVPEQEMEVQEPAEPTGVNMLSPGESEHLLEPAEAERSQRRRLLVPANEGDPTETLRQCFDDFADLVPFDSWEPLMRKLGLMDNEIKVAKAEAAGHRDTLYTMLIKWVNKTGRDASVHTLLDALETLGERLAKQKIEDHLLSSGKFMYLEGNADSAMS

B1: 014-42.3D10 ATRIMER (designed binder, part only; not given: nothing essential, part only)
chain, part: EPPTQKPKKIVNAKKDVVNTKMFEELKSRLDTLAQEVALLKEQQALQTVCLKGTKVHMKCFLAFTQTKTFHEASEDCISRGGTLSTPQTGSENDALYEYLRQSVGNEAEIWLGLNVDMTGARIAYKNWETEITAQPCAVLSGAANGKWFDKRCRDQLPYICQFGIV
As for B1, in assay [1], the Ka is 6.58e+06 M⁻¹, the Kd was 152 nM, the koff was found to be 0.00185 s⁻¹ and the on-rate constant (kon) turned out to be 12200 M⁻¹ s⁻¹.

B2: 014-42.3B8 ATRIMER (designed binder, part only; not given: nothing essential, part only)
chain, part: B1 chain, part
Turning to B2, in assay [1], the Ka worked out at 1.11e+08 M⁻¹, the Kd stood at 9.01 nM, the koff is 0.00101 s⁻¹ and the kon was 112000 M⁻¹ s⁻¹.

B3: 4a8c (=A3C) DR 5 ATRIMER (designed binder, from a related filing, part only)
chain: EPPTQKPKKIVNAKKDVVNTKMFEELKSRLDTLAQEVALLKEQQALQTVCLKGTKVHMKCFLAFTQTKTFHEASEDCISRGGTLSTPQTGSENDALYEYLRQSVGNEAEIWLGLNRATLRPRWVDMTGARIAYKNWETEITAQPDGGKNCAVLSGAANGKWFDKRCRDQLPYICQFGIV
Turning to B3, in assay [2], the Ka worked out at 1.74e+08 M⁻¹, the Kd is 5.74 nM, the koff came out at 0.000362 s⁻¹ and the kon worked out at 63000 M⁻¹ s⁻¹.
